Measured values: US20260374857 (published 2026)
Where a chain is given by its changes, count along the chain named.

T1: GnRH Bio-peptide 1 (not fully specified)
T1 chain: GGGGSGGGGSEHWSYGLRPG

T2: GnRH Bio-peptide 2 (not fully specified)
T2 chain: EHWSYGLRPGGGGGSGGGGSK

B1: Clone 9 (pGnRH-009) (antibody, V domains shown)
VH: EVQLVESGGGLVQSGGSLGLSCAASGRTFSGYAMGWFRQAPGKEREFVAAIRWSGGSTSYADSVKGRFTISRDNAKNTVYLQMNSLKPEDTAVYYCAADRGPSGSYYYPDYWGQGTQVTVSS
B2: Clone 9 Ala scanning 9 (antibody, V domains shown)
VH: B1 VH with Y107A
B3: Clone 9 Ala scanning 11 (antibody, V domains shown)
VH: B1 VH with P109A
B4: Clone 9 Ala scanning 5 (antibody, V domains shown)
VH: B1 VH with S103A
B5: Clone 9 Ala scanning 7 (antibody, V domains shown)
VH: B1 VH with S105A
B6: Clone 9 Ala scanning 6 (antibody, V domains shown)
VH: B1 VH with G104A
B7: Clone 9 Ala scanning 4 (antibody, V domains shown)
VH: B1 VH with P102A
B8: Clone 9 Ala scanning 8 (antibody, V domains shown)
VH: B1 VH with Y106A
B9: Clone 9 Ala scanning 10 (antibody, V domains shown)
VH: B1 VH with Y108A
B10: Clone 9 Ala scanning 12 (antibody, V domains shown)
VH: B1 VH with D110A
B11: Clone 9 Ala scanning 3 (antibody, V domains shown)
VH: B1 VH with G101A
B12: Clone 9 Ala scanning 2 (antibody, V domains shown)
VH: B1 VH with R100A
B13: Clone 1 (pGnRH-001) (antibody, V domains shown)
VH: QVQLVESGGGLVQAGGSVRLSCTASGRTFNNYVLGWFRQTPGKEREFVAAIRGTGSTTHADSVKGRFTISRDNAKNTVYLQMNSLKPEDTAVYYCAADDAYYPGNLRPQYWGQGTQVTVSS
B14: 01Tm2 (antibody, V domains shown)
VH: B13 VH with Q1D, A14P, V18L, T23A, N30Q
B15: 01Tm3 (antibody, V domains shown)
VH: B13 VH with Q1D, A14P, V18L, T23A, N31A
B16: 01Tm1 (antibody, V domains shown)
VH: B13 VH with Q1D, A14P, V18L, T23A
B17: 01Tm4 (antibody, V domains shown)
VH: B13 VH with Q1D, A14P, V18L, T23A, N30S
B18: 09Tm2 (antibody, V domains shown)
VH: B1 VH with E1D, S14P, G19R, W53F
B19: 09Tm1 (antibody, V domains shown)
VH: B1 VH with E1D, S14P, G19R
B20: Clone 19 (pGnRH-019) (antibody, V domains shown)
VH: B13 VH with V18L, G53W, T57N
B21: Clone 1 Variant 5 (antibody, V domains shown)
VH: B13 VH with D99R, A100T, N105A
B22: Clone 1 Variant 1 (antibody, V domains shown)
VH: B13 VH with Q109H
B23: Clone 1 Variant 3 (antibody, V domains shown)
VH: B13 VH with P103S, Q109H
B24: Clone 1 Variant 4 (antibody, V domains shown)
VH: B13 VH with D99E, A100T, Q109H
B25: Clone 1 Variant 2 (antibody, V domains shown)
VH: B13 VH with D99R, Q109H
B26: Clone 1 Ala scanning 1 (antibody, V domains shown)
VH: B13 VH with D98A
B27: Clone 1 Ala scanning 10 (antibody, V domains shown)
VH: B13 VH with P108A
B28: Clone 1 Ala scanning 7 (antibody, V domains shown)
VH: B13 VH with N105A
B29: Clone 1 Ala scanning 2 (antibody, V domains shown)
VH: B13 VH with D99A
B30: Clone 1 Ala scanning 8 (antibody, V domains shown)
VH: B13 VH with L106A
B31: Clone 1 Ala scanning 6 (antibody, V domains shown)
VH: B13 VH with G104A
B32: Clone 1 Ala scanning 11 (antibody, V domains shown)
VH: B13 VH with Q109A
B33: Clone 1 Ala scanning 9 (antibody, V domains shown)
VH: B13 VH with R107A
B34: Clone 1 Ala scanning 3 (antibody, V domains shown)
VH: B13 VH with Y101A
B35: Clone 1 Ala scanning 4 (antibody, V domains shown)
VH: B13 VH with Y102A
B36: Clone 1 Ala scanning 5 (antibody, V domains shown)
VH: B13 VH with P103A
B37: Clone 9 Ala scanning 1 (antibody, V domains shown)
VH: B1 VH with D99A

Target: T1, GnRH Bio-peptide 1
Assay: ELISA

EC50 | Binder
14.4 nM | B1
56.4 nM | B2
375 nM | B3
49.5 nM | B4
15.6 nM | B5
524 nM | B6
51.3 nM | B7
554 nM | B8
61.2 nM | B9
365 nM | B10
307 nM | B11
29.9 nM | B12

Target: T2, GnRH Bio-peptide 2
Assay: SPR

Kd | Binder
7.1 nM | B13

Target: T1, GnRH Bio-peptide 1
Assay: SPR

Kd | Binder
13.5 nM | B13

Target: T2, GnRH Bio-peptide 2
Assay: ELISA

EC50 | Binder
0.3 nM | B13
0.32 nM | B14
0.33 nM | B15
0.33 nM | B16
0.32 nM | B17

Target: T2, GnRH Bio-peptide 2
Assay: ELISA
Remark: another data set of the same source

EC50 | Binder
0.36 nM | B1
1.99 nM | B18
1.91 nM | B19

Target: T1, GnRH Bio-peptide 1
Assay: ELISA
Remark: another data set of the same source

EC50 | Binder
0.41 nM | B13
0.32 nM | B14
0.4 nM | B15
0.34 nM | B16
0.32 nM | B17

Target: T1, GnRH Bio-peptide 1
Assay: ELISA
Remark: another data set of the same source

EC50 | Binder
14 nM | B13
415000 nM | B20

Target: T1, GnRH Bio-peptide 1
Assay: ELISA
Remark: another data set of the same source

EC50 | Binder
8.16 nM | B1
1.37 nM | B18
0.99 nM | B19

Target: T1, GnRH Bio-peptide 1
Assay: ELISA
Remark: another data set of the same source

EC50 | Binder
1.27 nM | B13
0.94 nM | B21
0.39 nM | B22
1.19 nM | B23
0.96 nM | B24
0.5 nM | B25

Target: T1, GnRH Bio-peptide 1
Assay: ELISA
Remark: another data set of the same source

EC50 | Binder
4 nM | B13
509 nM | B26
65.7 nM | B27
4.3 nM | B28
19.8 nM | B29
4 nM | B30
26.2 nM | B31
11.9 nM | B32
4.2 nM | B33
> 1000 nM | B34
152 nM | B35
16.9 nM | B36

Target: T1, GnRH Bio-peptide 1
Assay: ELISA
Remark: another data set of the same source

binding result | Binder
no binding | B37
